Measured values: patent US20240400705A1 (SYNERGY IMT, published 2024)

Experiments:
[1] = target: CD137 on cells (CD137 reporter cell line, Promega; expanded T cells) (UniProt Q07011 24-255, limits assumed); test: cell-based or functional assay
CD3 on T cells = target: T1, CD3 on T cells (UniProt P07766 23-207); test: flow cytofluorimetry on expanded T cells, 250 nM; bar = MFI, marker = percent positive
T1 construct: whole, on cells; CD3 is a complex; also called T cell CD3
Protocol: (§1) The binding of the multispecific recombinant antigen binding molecules to expanded T cells (FIG. 6D) and to the colon tumor cell line DLD1 (FIG. 6A) was determined by flow cytofluorimetry. Binding was conducted with a saturating concentration (250 nM). The T cells were expanded in culture from immunocult ([…] Technologies) stimulated peripheral blood mononuclear cells that were maintained in culture for at least 30 days. Multispecific recombinant antigen binding molecules were produced in HEK293 cells and one-step purified by FPLC using a HiTrap Protein A column. The expression of various T cell markers or tumor antigens was determined using commercial antibodies specific for Trop2, CD137, MICA/MICB, Tim4, Tim1 (all purchased from Biolegend). […] Greater levels of binding to DLD1 are associated with binding to PS and in particular bivalent binding to PS (e.g., 17v7-18v9).

[2] = target: T2, TROP2 on DLD1 colon cancer cells (UniProt P09758 27-323, limits assumed); test: flow cytofluorimetry on DLD1 colon tumor cells, 250 nM; bar = MFI, marker = percent positive
T2 construct: whole, on cells
T2 sequence (looked up): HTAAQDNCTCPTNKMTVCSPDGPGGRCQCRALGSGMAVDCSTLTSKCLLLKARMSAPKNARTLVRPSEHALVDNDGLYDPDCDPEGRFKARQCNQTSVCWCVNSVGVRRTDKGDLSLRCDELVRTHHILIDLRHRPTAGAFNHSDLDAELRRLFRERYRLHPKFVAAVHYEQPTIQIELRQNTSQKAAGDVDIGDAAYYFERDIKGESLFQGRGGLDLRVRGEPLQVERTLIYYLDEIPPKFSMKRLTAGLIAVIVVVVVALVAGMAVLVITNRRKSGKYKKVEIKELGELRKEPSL
Protocol: as §1

[3] = target: T2, TROP2 on DLD1 colon cancer cells; test: cell-based or functional assay
[4] = target: T2, TROP2 on DLD1 colon cancer cells; test: flow cytofluorimetry on DLD1 colon tumor cells, 250 nM; bar = MFI, marker = percent positive; the molecule also carries a b2GP1 D5 domain for phosphatidylserine
Protocol: as §1

Sequence of CD137 on cells (CD137 reporter cell line, Promega; expanded T cells) (Q07011 24-255 limits assumed): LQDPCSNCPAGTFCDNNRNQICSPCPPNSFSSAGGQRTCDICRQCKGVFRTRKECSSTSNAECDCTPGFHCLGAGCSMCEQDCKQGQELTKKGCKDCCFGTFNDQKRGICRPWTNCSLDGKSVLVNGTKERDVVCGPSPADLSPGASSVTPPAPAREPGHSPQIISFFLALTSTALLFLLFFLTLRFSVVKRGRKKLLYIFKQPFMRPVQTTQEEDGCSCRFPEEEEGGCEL
T1 sequence (P07766 23-207): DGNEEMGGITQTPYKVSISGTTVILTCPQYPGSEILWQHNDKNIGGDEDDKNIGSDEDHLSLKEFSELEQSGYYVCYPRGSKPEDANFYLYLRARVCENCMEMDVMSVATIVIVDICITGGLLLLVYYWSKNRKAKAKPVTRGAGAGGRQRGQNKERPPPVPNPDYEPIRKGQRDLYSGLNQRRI

B1: TetrAx 20v8-18v26 (Trop2 x CD137, two CD137L domains) (bispecific antibody)
light: DIQLTQSPSSLSASVGDRVSITCKASQDVSIAVAWYQQKPGKAPKLLIYSASYRTTGVPDRFSGSGSGTDFTLTISSLQPEDFAVYYCQQHYITPLTFGAGTKVEIKRTVAAPSVFIFPPSDEQLKSGTASVVCLLNNFYPREAKVQWKVDNALQSGNSQESVTEQDSKDSTYSLSSTLTLSKADYEKQKVYACEVTHQGLSSPVTKSFLRGECGGPAGGGGGTHTCPPCPAPEAAGGPSVFLFPPKPKDTLMISRTPEVTCVVVDVSHEDPEVKFNWYVDGVEVHNAKTKPREEQYNSTYRVVSVLTVLHQDWLNGKEYKCKVSNKALPAPIEKTISKAKGQPREPQVCTLPPSRDELTKNQVSLSCAVKGFYPSDIAVEWESNGQPENNYKTTPPVLDSDGSFFLVSKLTVDKSRWQQGNVFSCSVMHEALHNHYTQKSLSLSPGKGGGGGGMFAQLVAQNVLLIDGPLSWYSDPGLAGVSLTGGLSYKEDTKELVVAKAGVYYVFFQLELRRVVAGEGSGSVSLALHLQPLRSAAGAAALALTVDLPPASSEARNSAFGFQGRLLHLSAGQRLGVHLHTEARARHAWQLTQGATVLGLFRVTP
heavy: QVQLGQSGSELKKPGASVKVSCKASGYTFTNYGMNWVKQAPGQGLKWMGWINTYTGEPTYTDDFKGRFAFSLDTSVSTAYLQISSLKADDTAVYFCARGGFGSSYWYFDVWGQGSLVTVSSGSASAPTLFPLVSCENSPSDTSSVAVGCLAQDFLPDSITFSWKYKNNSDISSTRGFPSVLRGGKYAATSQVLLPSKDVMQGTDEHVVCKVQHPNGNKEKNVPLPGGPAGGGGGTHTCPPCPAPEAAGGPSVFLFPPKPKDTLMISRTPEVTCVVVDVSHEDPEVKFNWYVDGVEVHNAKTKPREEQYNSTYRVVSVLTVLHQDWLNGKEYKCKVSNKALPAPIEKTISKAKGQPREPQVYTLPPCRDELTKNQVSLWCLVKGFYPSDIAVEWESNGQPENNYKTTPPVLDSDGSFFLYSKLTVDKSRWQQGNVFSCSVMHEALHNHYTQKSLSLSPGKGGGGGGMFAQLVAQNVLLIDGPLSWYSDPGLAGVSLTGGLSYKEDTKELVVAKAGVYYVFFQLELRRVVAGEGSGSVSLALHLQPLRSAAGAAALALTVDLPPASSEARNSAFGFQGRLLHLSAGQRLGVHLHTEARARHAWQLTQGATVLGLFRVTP
notes: also called dual CD137L TetrAx
CD137 signaling relative to the TetrAx with a single CD137L domain [1]: 3 fold
T cell DLD1 cytotoxicity EC50 [1]: 0.3 nM
binding result (CD3 on T cells): no binding (tested: 250 nM)

B2: TetrAx 20v8-18v22 (Trop2 x CD137, one CD137L domain) (bispecific antibody)
light: DIQLTQSPSSLSASVGDRVSITCKASQDVSIAVAWYQQKPGKAPKLLIYSASYRTTGVPDRFSGSGSGTDFTLTISSLQPEDFAVYYCQQHYITPLTFGAGTKVEIKRTVAAPSVFIFPPSDEQLKSGTASVVCLLNNFYPREAKVQWKVDNALQSGNSQESVTEQDSKDSTYSLSSTLTLSKADYEKQKVYACEVTHQGLSSPVTKSFLRGECGGPAGGGGGTHTCPPCPAPEAAGGPSVFLFPPKPKDTLMISRTPEVTCVVVDVSHEDPEVKFNWYVDGVEVHNAKTKPREEQYNSTYRVVSVLTVLHQDWLNGKEYKCKVSNKALPAPIEKTISKAKGQPREPQVCTLPPSRDELTKNQVSLSCAVKGFYPSDIAVEWESNGQPENNYKTTPPVLDSDGSFFLVSKLTVDKSRWQQGNVFSCSVMHEALHNHYTQKSLSLSPGKGGGGGGMFAQLVAQNVLLIDGPLSWYSDPGLAGVSLTGGLSYKEDTKELVVAKAGVYYVFFQLELRRVVAGEGSGSVSLALHLQPLRSAAGAAALALTVDLPPASSEARNSAFGFQGRLLHLSAGQRLGVHLHTEARARHAWQLTQGATVLGLFRVTP
heavy: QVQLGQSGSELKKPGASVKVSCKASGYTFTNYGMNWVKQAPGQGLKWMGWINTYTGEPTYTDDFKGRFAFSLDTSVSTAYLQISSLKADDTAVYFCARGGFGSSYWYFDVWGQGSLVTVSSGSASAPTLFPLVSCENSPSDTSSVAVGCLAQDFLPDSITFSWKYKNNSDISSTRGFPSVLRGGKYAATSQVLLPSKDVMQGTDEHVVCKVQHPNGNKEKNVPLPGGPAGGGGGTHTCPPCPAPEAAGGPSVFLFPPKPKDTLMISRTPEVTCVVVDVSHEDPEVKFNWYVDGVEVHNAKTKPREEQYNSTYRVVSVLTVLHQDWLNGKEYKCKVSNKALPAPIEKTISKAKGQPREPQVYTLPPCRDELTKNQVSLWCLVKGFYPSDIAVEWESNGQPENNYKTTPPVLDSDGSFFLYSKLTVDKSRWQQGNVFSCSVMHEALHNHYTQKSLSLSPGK
notes: CD137L domain is residues 90 to 242 (THD)
T cell DLD1 cytotoxicity [1]: 40 fold
binding result (CD3 on T cells): no binding (tested: 250 nM)
binding result [2]: binds

B3: TetrAx 17v9-18 (Trop2 x CD3) (bispecific antibody)
light: QAVVTQEPSLTVSPGGTVTLTCGSSTGAVTTSNYANWVQEKPGQAFRGLIGGTNKRAPGTPARFSGSLLGGKAALTLSGAQPEDEAEYYCALWYSNLWVFGCGTKLTVLRTVAAPSVFIFPPSDEQLKSGTASVVCLLNNFYPREAKVQWKVDNALQSGNSQESVTEQDSKDSTYSLSSTLTLSKADYEKHKVYACEVTHQGLSSPVTKSFNRGECGGPAGGGGGTHTCPPCPAPEAAGGPSVFLFPPKPKDTLMISRTPEVTCVVVDVSHEDPEVKFNWYVDGVEVHNAKTKPREEQYNSTYRVVSVLTVLHQDWLNGKEYKCKVSNKALPAPIEKTISKAKGQPREPQVCTLPPSRDELTKNQVSLSCAVKGFYPSDIAVEWESNGQPENNYKTTPPVLDSDGSFFLVSKLTVDKSRWQQGNVFSCSVMHEALHNHYTQKSLSLSPGKGGGGGGQVQLGQSGSELKKPGASVKVSCKASGYTFTSYAMNWVRQAPGQGLKWMGWINTYTGETPYTDDFKGRFAFSLDTSVSTAYLQISSLKADDTAVYFCARGGFGSSYWYFDVWGQGTLVTVSSGGGGSGGGGSGGGGSDIQLTQSPSSLSASVGDRVSITCKASQDVSIAVAWYQQKPGKAPKLLIYSASYRYTGVPDRFSGSGSGTDFTLTISSLQPEDFAVYYCQQHYITPLTFGAGTKVEIK
heavy: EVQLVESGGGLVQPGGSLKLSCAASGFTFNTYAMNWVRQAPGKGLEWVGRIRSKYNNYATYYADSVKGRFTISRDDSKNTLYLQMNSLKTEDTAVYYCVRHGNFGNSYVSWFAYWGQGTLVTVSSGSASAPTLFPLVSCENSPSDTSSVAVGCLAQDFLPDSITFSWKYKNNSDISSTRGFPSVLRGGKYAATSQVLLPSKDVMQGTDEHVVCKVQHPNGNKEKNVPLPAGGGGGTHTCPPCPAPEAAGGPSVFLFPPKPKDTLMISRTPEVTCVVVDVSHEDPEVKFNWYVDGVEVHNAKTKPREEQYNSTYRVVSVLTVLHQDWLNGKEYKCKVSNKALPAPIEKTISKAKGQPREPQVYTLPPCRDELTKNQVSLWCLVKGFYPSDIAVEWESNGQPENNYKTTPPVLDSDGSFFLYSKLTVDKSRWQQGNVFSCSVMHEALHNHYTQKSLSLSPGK
DLD1 cytotoxicity EC50 (18 h, T cells) [3]: ~3 pM

B4: TetrAx 17v16-18v23 (Trop2 x CD3) (bispecific antibody)
light: DIQLTQSPSSLSASVGDRVSITCKASQDVSIAVAWYQQKPGKAPKLLIYSASYRTTGVPDRFSGSGSGTDFTLTISSLQPEDFAVYYCQQHYITPLTFGAGTKVEIKRTVAAPSVFIFPPSDEQLKSGTASVVCLLNNFYPREAKVQWKVDNALQSGNSQESVTEQDSKDSTYSLSSTLTLSKADYEKQKVYACEVTHQGLSSPVTKSFLRGECGGPAGGGGGTHTCPPCPAPEAAGGPSVFLFPPKPKDTLMISRTPEVTCVVVDVSHEDPEVKFNWYVDGVEVHNAKTKPREEQYNSTYRVVSVLTVLHQDWLNGKEYKCKVSNKALPAPIEKTISKAKGQPREPQVCTLPPSRDELTKNQVSLSCAVKGFYPSDIAVEWESNGQPENNYKTTPPVLDSDGSFFLVSKLTVDKSRWQQGNVFSCSVMHEALHNHYTQKSLSLSPGK
heavy: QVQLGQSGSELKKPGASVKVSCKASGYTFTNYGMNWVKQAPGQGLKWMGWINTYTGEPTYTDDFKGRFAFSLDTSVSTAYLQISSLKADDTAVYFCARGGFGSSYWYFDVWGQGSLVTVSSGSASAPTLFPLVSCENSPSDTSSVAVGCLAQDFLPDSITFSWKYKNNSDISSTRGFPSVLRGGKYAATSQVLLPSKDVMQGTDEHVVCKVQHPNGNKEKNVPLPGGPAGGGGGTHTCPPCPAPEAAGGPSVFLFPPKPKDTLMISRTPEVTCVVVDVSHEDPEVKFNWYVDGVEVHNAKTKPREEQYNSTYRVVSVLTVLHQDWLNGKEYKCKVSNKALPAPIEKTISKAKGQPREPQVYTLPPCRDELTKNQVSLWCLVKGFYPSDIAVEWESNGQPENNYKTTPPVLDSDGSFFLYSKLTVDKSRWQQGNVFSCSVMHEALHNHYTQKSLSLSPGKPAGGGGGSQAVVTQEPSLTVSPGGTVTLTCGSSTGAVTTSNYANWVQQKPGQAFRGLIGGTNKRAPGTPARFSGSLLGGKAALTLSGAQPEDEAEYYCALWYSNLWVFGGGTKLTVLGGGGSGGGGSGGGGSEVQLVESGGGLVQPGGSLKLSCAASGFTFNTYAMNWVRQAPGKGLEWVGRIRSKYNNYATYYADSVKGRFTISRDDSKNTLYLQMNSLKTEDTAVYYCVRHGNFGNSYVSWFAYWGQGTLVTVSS
DLD1 cytotoxicity EC50 (18 h, T cells) [3]: 8 pM

B5: TetrAx 17v17-18v23 (PS x Trop2 x CD3) (bispecific antibody)
light: DIQLTQSPSSLSASVGDRVSITCKASQDVSIAVAWYQQKPGKAPKLLIYSASYRTTGVPDRFSGSGSGTDFTLTISSLQPEDFAVYYCQQHYITPLTFGAGTKVEIKRTVAAPSVFIFPPSDEQLKSGTASVVCLLNNFYPREAKVQWKVDNALQSGNSQESVTEQDSKDSTYSLSSTLTLSKADYEKQKVYACEVTHQGLSSPVTKSFLRGECGGPAGGGGGTHTCPPCPAPEAAGGPSVFLFPPKPKDTLMISRTPEVTCVVVDVSHEDPEVKFNWYVDGVEVHNAKTKPREEQYNSTYRVVSVLTVLHQDWLNGKEYKCKVSNKALPAPIEKTISKAKGQPREPQVCTLPPSRDELTKNQVSLSCAVKGFYPSDIAVEWESNGQPENNYKTTPPVLDSDGSFFLVSKLTVDKSRWQQGNVFSCSVMHEALHNHYTQKSLSLSPGKGGGGGGASCKVPVKKATVVYQGERVKIQEKFKNGMLHGDKVSFFCKNKEKKCSYTEDAQCIDGTIEVPKCFKEHSSLAFWKTDASDVKPC
heavy: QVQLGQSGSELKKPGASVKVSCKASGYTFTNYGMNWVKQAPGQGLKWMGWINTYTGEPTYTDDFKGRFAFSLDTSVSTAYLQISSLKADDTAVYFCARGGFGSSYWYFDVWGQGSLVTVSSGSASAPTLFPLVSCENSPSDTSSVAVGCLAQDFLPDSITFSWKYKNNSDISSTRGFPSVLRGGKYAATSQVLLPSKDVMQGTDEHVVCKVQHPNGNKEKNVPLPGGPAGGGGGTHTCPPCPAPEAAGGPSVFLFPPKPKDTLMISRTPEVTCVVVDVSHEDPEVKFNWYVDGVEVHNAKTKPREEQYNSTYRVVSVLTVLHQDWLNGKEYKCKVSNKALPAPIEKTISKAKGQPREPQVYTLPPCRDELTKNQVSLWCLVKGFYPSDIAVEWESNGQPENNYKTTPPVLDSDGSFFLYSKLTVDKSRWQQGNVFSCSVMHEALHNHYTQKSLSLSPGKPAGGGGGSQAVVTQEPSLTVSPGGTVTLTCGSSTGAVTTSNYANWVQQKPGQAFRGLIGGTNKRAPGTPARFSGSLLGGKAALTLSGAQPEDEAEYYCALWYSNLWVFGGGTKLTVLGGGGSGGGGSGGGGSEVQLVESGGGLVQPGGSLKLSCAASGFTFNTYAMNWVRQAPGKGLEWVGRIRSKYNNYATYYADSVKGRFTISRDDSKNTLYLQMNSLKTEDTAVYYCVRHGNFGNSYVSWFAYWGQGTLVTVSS
DLD1 cytotoxicity EC50 (18 h, T cells) [3]: 0.5 pM
DLD1 cytotoxicity EC50 in a 3D tumor model (spheroids, T cells 2:1) [3]: 21 pM

B6: 17v17-18v22 (bispecific antibody)
light chain 17v17: DIQLTQSPSSLSASVGDRVSITCKASQDVSIAVAWYQQKPGKAPKLLIYSASYRTTGVPDRFSGSGSGTDFTLTISSLQPEDFAVYYCQQHYITPLTFGAGTKVEIKRTVAAPSVFIFPPSDEQLKSGTASVVCLLNNFYPREAKVQWKVDNALQSGNSQESVTEQDSKDSTYSLSSTLTLSKADYEKQKVYACEVTHQGLSSPVTKSFLRGECGGPAGGGGGTHTCPPCPAPEAAGGPSVFLFPPKPKDTLMISRTPEVTCVVVDVSHEDPEVKFNWYVDGVEVHNAKTKPREEQYNSTYRVVSVLTVLHQDWLNGKEYKCKVSNKALPAPIEKTISKAKGQPREPQVCTLPPSRDELTKNQVSLSCAVKGFYPSDIAVEWESNGQPENNYKTTPPVLDSDGSFFLVSKLTVDKSRWQQGNVFSCSVMHEALHNHYTQKSLSLSPGKGGGGGGASCKVPVKKATVVYQGERVKIQEKFKNGMLHGDKVSFFCKNKEKKCSYTEDAQCIDGTIEVPKCFKEHSSLAFWKTDASDVKPC
heavy chain 18v22: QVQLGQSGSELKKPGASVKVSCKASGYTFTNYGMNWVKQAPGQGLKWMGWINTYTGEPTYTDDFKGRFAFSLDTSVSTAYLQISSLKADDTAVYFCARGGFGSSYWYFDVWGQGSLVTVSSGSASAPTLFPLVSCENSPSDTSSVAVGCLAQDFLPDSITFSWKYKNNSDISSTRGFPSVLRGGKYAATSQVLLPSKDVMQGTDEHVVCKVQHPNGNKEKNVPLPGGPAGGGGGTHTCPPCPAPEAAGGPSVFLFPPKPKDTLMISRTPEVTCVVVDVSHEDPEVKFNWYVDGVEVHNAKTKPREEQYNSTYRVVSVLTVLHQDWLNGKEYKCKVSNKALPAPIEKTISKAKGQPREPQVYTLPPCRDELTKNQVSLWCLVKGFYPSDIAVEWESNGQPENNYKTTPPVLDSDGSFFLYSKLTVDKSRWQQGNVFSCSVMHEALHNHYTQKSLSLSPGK
notes: also called TROP2 - PS (control)
binding result [4]: binds
